Laboratory results from PMC9195047 (The Journal of Experimental Medicine, 2022).

How the values were obtained:
[1] = target: CHIKV 181/25 structural proteins on infected Vero cells (Chikungunya virus, 181/25, UniProt Q88628, strain); test: flow cytometry on cells
[2] = target: VEEV TC-83 structural proteins (capsid-p62-6K-E1) displayed on Expi293F cells (Venezuelan equine encephalitis virus, …, UniProt P05674, strain); test: flow cytometry on cells

B1: hVEEV-63 (human anti-VEEV monoclonal antibody, IgG1) (antibody, V domains shown)
VH: QVQLVQSGAEVKKPGASVKVSCKSSGYTFTNYIIHWVRQAPGQRLEWMGWINAGNGNTKYSQKFQGRISVTRDTSASAAYMELSSLKSEDTALYYCATLQMDYGGNGDLDYWGQGTLVTVSS
VL: YELTQPPSVSVSPGQTARITCSGDALPKQYVYWYQQKPGQAPVLVIYKDSERPSGIPERFSGSSSGTTVTLTISGVQAEDDADYYCQAADSSNTEYVFGTGTKVTVL
Does B1 bind [1]?
Result: no binding (tested: 10 µg/ml)

Does B1 bind [2]?
Result: binds
